No end group written: not given here. *: point of attachment. FITC = O=C1OC2(c3ccc(O)cc3Oc3cc(O)ccc32)c2ccc(NC(=S)*)cc21
Target: T1, Synuclein-gamma (SNCG) (UniProt O76070 1-127)
T1 construct: Intracellular protein in MCF7-SNCG cells; also called γ-synuclein; gamma synuclein
Test: co-immunoprecipitation with anti-SNCG antibody from treated MCF7-SNCG cell lysates, western blot with anti-FITC antibody

T1 sequence (O76070 whole entry): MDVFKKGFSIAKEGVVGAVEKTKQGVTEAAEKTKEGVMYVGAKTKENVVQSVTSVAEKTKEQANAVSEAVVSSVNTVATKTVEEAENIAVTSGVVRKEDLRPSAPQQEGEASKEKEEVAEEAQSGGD

B1: FITC tagged GYGRKKRRQRRR (TAT) alone (peptide)
peptide: {FITC}-GYGRKKRRQRRR
notes: Control peptide in the co-immunoprecipitation; also called TAT CTL; control peptide
- binding result: no binding
